Source: US20260258115A1 (MAPP BIOPHARMACEUTICAL, published 2026)

Assays:
[1] = target: RSV prefusion F, subtype A (preF, DS-Cav1 trimer) (Respiratory syncytial virus subtype A, UniProt P03420 26-513); experiment: BLI, IgG apparent affinity
[2] = target: RSV F on recombinant mKate-RSV B 18537 virus (Respiratory syncytial virus B 18537, UniProt P13843 26-574); experiment: cell-based or functional assay
[3] = target: RSV F on recombinant mKate-RSV A2 virus (Respiratory syncytial virus A2, UniProt P03420 26-574); experiment: cell-based or functional assay
[4] = target: RSV postfusion F (postF), F ΔFP (Respiratory syncytial virus, UniProt P03420 26-513); experiment: BLI, IgG on anti-human IgG sensor
[5] = target: RSV prefusion F (preF), DS-Cav1 (Respiratory syncytial virus, UniProt P03420 26-513); experiment: BLI, IgG on anti-human IgG sensor, 100 nM antigen
[6] = target: RSV F on RSV-A2 virus (Respiratory syncytial virus, RSV-A2, UniProt P03420 26-574); experiment: cell-based or functional assay
[7] = target: RSV fusion glycoprotein (RSV F) on RSV-A2 virus (respiratory syncytial virus, UniProt P03420 26-574); experiment: cell-based or functional assay
[8] = target: RSV postfusion F (postF), F deltaFP (respiratory syncytial virus, UniProt P03420 26-513); experiment: BLI, IgG on sensor
[9] = target: RSV prefusion F (preF), DS-Cav1 (respiratory syncytial virus, UniProt P03420 26-513); experiment: BLI, IgG on sensor, 100 nM antigen

| Binder | binding result [4] | Kd [5] | Neutralization IC50 (RSV subtype A) [6] | also measured |
| --- | --- | --- | --- | --- |
| ADI-21069 (antibody, V domains shown) VH: EVQLVESGAEVRKPGASVKVSCKASGYTFSSNAISWVRQAPGQGLEWMGYISVFNGNTKYAQNLQGRVTMTTDTATSTVYMELRSLRYDDTAIYYCARESLGMGGFYFDHWGQGTLVTVSS VL: SYELTQPPSVSVAPGQTARITCGANNIGSDSVHWYQQKPGQAPVLVVFDDRDRPSGIPERFSGSNSGNTATLTISRVEAGDEADYYCQVWMTSDRSVFGGGTKLTVL | – | – | – | Kd [1]: 0.123 nM; Neut IC50 (ug/ml) subtype B [2]: 0.26 µg/mL; Neut IC50 (ug/ml) subtype A [3]: 0.11 µg/mL |
| ADI-36678 (antibody, V domains shown) VH: EVQLVQSGGGLVQPGGSLRVSCAASGLTVSTNYMSWVRQLPGKGLEWVSVIYSGGNTYYADSVKGRFTISRDNSKNIVYLEMNSLRIEDTAVYYCARAHLNNWFVSVTDTKDYYFDYWGQGTLVTVSS VL: SYELTQPPSVSVLPGQTASITCSGDKLGDKYASWYQQKPGQSPILVVFQDDKRPSGIPERFSGSNSGNTATLTISGTQATDEADYYCQACDRNTGVFGTGTKLTVL | no binding (tested: 100 nM antigen) | 0.716 nM | 0.006 µg/mL | – |
| ADI-36676 (antibody, V domains shown, also called Ab 832; Antibody Number 832) VH: EVQLLESGGGVVQPGRSLRLSCAASGFSFRNYDMHWVRQAPGKGLEWVAIISYDGSNKYADSVKGRFTISRDTSKNTLYLQMNSLRVEDTAVYYCARADSSGYYKGSEYFQHWGQGTLVTVSS VL: SYELTQLPSVSVAPGQTARITCGGNNIGTKSVQWYQHKPGQAPVLVVYDDSDRPSDIPERFSGSNSGNTATLTISRVEAGDEADYYCQVWDSSSDHYVFGTGTKLTVL | no binding (tested: 100 nM antigen) | 0.282 nM | 0.006 µg/mL | – |
| ADI-36673 (antibody, V domains shown, also called Ab 830; Antibody Number 830) VH: QVQLVQSGGGLVKPGGSLRLSCAASGFTFRDFYMSWIRQAPGKGLEWVSNISPSSTYTNYADSVKGRFTISRDNAKNSLYLQMNSLRAEDTAVYYCVKSEGYSSGWYDYWGQGTLVTVSS VL: QPVLTQPPSVSGAPGQRVTISCTGSSSNIGAGYDVNWYHQLPGAAPKLLIYTNSNRPSGVPDRFSGSKSGTSASLAITGLQAEDEADYYCQSYDSSLSGYVFGTGTKLTVL | no binding (tested: 100 nM antigen) | 0.62 nM | 0.02 µg/mL | – |
| ADI-41591 (antibody, V domains shown, also called Ab 865; Antibody Number 865) VH: QVTLKESGGGLVKPGGSLRLSCAASGFTFSDYYMSWIRQAPGKGLEWVSYISSSSSYTNYADSVKGRFTISRDNAKNSLYLQMNSLRAEDTAVYYCAREAVAAAGTDYFDYWGQGTLVTVSS VL: QSVLTQPPSVSGAPGQRVTISCTGSSSNIGAGYDVHWYQQPPRTAPKLLIYGNSNRPSGVPDRFSGSKSGTSASLAITGLQAEDEADYYCQSYDSSLSGYVFGTGTKLTVL | no binding (tested: 100 nM antigen) | 4.26 nM | > 25 µg/mL | – |
| ADI-41787 (antibody, V domains shown) VH: EVQLLESGGGVVQPGRSLRLSCAASGFTFSSSGMHWVRQAPGKGLEWVAIISSDGSKHYYADSVKGRFTISRDNSKNTLYLEMNSLRAEDSAVYYCAREGVWSGFFVDTGTDFRHHGMDVWGQGTTVTVSS VL: SYELTQPPSVSVSPGQTARITCSGDALPKKFAFWYQQKSGQAPLLVIHEDNKRPSGIPERFSGSSSGTLATLTISGAQVEDEADYYCYSIDTSANLGVFGGGTKLTVL | no binding (tested: 100 nM antigen) | 1.56 nM | 0.38 µg/mL | – |
| ADI-41567 (antibody, V domains shown, also called Ab 845; Antibody Number 845) VH: QVQLQQWGAGLLKPSETLSLTCEVYGGSFSGYYWTWFRQPPGEGLEWIGEINHSGGTNYNPSLKSRVTMSVDASINQFSLQLSSVTAADTSVYYCARGHYYNTNDFYGLFDYWGQGTLVTVSS VL: DIRLTQSPSFLSASVGDRVTITCRASQGISTYLAWYQQKPGKAPKLLLYAASTLHSGVPSRFSGSGSGTEFTLTISSLQPEDFATYYCQQLNRYPPSTFGPGTKLEIK | no binding (tested: 100 nM antigen) | 0.717 nM | 0.0505 µg/mL | – |
| ADI-41452 (antibody, V domains shown, IgG1; also called Ab 736) VH: QVQLVQSGAELKKPGASVKVSCKASGHTFATYAIHWVRQAPGQSLEWLGWINTANGDTKYSQKFRATVTIHGDTSANTVYLELSRLRSEDTAVYYCASPPLVGAINLEFWGPGTLVTVSS VL: QSVLTQPASVSGSVGQSITISCTGTSSDVGGYNSVSWYQHHPDKAPKLIIYEVSNRPSGVSHRFSGSKSGNTASLTISGLQAEDEADYYCSSYTTSDTLIFGGGTKVTVL | – | – | – | Neutralization IC50 (RSV subtype A) [7]: > 25 µg/mL; binding result [8]: no binding (tested: 100 nM antigen); Kd [9]: 3.33 nM |
| ADI-41590 (antibody, V domains shown) VH: EVQLVQSGGGLVKPGGSLRLSCTASGFTFSDHYMSWIRQAPGKGLEWISYISSTSSFTNYANSVKGRFTISRDNAKNSLYLQMNSLRAEDTAVYYCARDRSILYSGYSLDYWGQGTLVTVSS VL: DIQMTQSPSSLSASVGDRVTISCRASQSILNYLNWYQHKPGKAPKLLIYAASSLQSGVPSRFSGSGSGTDFTLTISGLQPEDFATYYCQQSDSTRTFGQGTKVEIK | no binding (tested: 100 nM antigen) | 3.02 nM | > 25 µg/mL | – |
| ADI-41790 (antibody, V domains shown) VH: QVQLVQSGAEVKKPGSSVKVSCKASGGTFSNYGISWVRQAPGQGLERLGGIIPIYGTANHAQNFQGRVTITADESTSTAYMELSSLRSEDTAVYYCARDGTFVRYYGMDVWGQGTTVTVSS VL: EIVLTQSPATLFLSPGERATLSCRASQSVSNYLAWFQQKPGQAPRLLIYDTSIRATGIPARFSGSGSGTDFTLTISSLEPEDFAFYYCQQRSNWPPTFGGGTKLEIK | no binding (tested: 100 nM antigen) | 3.15 nM | > 25 µg/mL | – |
| ADI-41454 (antibody, V domains shown, IgG1; also called Ab 738) VH: QVQLVQSGAEVKKPGASVKVSCKASGYTFTHFGISWVRQAPGQGLEWMGWISIYNGNTNYAQKIQGRATMTTDASTSTAYMELRSLTSDDTAVYYCAREPPSTTAAATSDYWGQGTLVTVSS VL: DIVMTQSPLSLPVTLGQPASISCRSSQSLVYIEGNTYLSWFQQRPGQSPRRLIYKVSNRDSGVPDRFSGSGSGTDFTLKISRVEAEDVGLYYCMQGTHWPRTFGQGTKLEIK | – | – | – | Neutralization IC50 (RSV subtype A) [7]: 0.88 µg/mL; binding result [8]: no binding (tested: 100 nM antigen); Kd [9]: 0.588 nM |
| ADI-41578 (antibody, V domains shown, also called Ab 852; Antibody Number 852) VH: EVQLVESGGGVVQPGRSLRLSCAASGFTLSSYVMDWVRQAPGKGLEWVAVISYDGSSKYYADSVKGRFTVSRDNSNNAMYLQMNSLRAEDTAVYYCARDPYYDILTGYSYFDYWGHGTTVTVSS VL: SYVLTQPPSVSGAPRQTATITCGGNNIGSKSVNWYQQKPGQAPVLVVYDDSARPSGIPERFSGSNSGNTATLTVSSVEAGDEADYFCQVWDTSSAPYPWVFGGGTKLTVL | no binding (tested: 100 nM antigen) | 0.249 nM | 0.0398 µg/mL | – |
| ADI-21078 (antibody, V domains shown) VH: EVQLVESGGGLVKPGGSLRLSCAASGFRLSDYYMSWIRQAPGKGLEWISDISGGSTYTNYADSVKGRLTISRDNAQNSLYLQMNSLRAEDTAVYYCARWGSGGPDAFHFWGQGTTVTVSS VL: QSVLTQPPSVSGVPGQRVTISCTGSRSNIGAGYDVHWYRQLPGTAPKLLIYGNSNRPSGVPDRFSGSKSGTSASLAITGLQADDEADYYCQSYDSSLSGSVIFGGGTKVTVL | – | – | – | Kd [1]: 0.311 nM; Neut IC50 (ug/ml) subtype B [2]: 0.2 µg/mL; Neut IC50 (ug/ml) subtype A [3]: 0.03 µg/mL |
| ADI-41809 (antibody, V domains shown) VH: QVTLKESGGGLVQPGGSLRLSCAASGFTFSNYAMSWVRQAPGKGLEWVSAISHSDSRTFYADSVKGRFTISRDNSKNTLFLQMDSLRAHDTAVYYCANVDPSSVTYYGYYYGMDVWGQGTTVTVSS VL: QSVLTQPPSASGTPGQRVTISCSGSSSNIGKNFVYWYQQFPGTAPKRLIYRNNQRPSGVPDRFSGSRSGTSASLAISGLRSEDEADYYCATWDDSLSGWVFGGGTKLTVL | no binding (tested: 100 nM antigen) | 2.65 nM | > 25 µg/mL | – |
| ADI-41756 (antibody, V domains shown) VH: EVQLLESGGGVVQPGRSLRLSCAASGLSFNSFGMHWVRQAPGKGLEWVAVIAYDGSNKYYADSVKGRFSISRDNSKNTLYLQMDSLRAEDTAVYYCAKAEAPNFSWSGYLSAFDIWGQGTTVTVSS VL: QPVLTQPASVSGSPGQSVTVSCTGTSDDVGDYNYVSWYQQHPGKAPKLLIFEVSDRPSGVSTRFSGSKSGNTASLTISGLQTEDEADYYCSSYTSRNLYVFGTGTKVTVL | no binding (tested: 100 nM antigen) | 29 nM | > 25 µg/mL | – |
| ADI-21080 (antibody, V domains shown) VH: EVQLLESGGGLVKPGGSLRLSCEVSGFRLSDYYMSWIRQAPGKGLEWVSHISGGSTYTNYADSVKGRFTISRDNGKKSMYLQMNSLRAEDTALYYCAKWGSGGPEAFDIWGRGTMVTVSS VL: QSALIQPPSVSGAPGQRVTISCTGSSSNIGAGYDVHWYQQIPGTAPKLLIYGNNNRPSGVPDRFSGSKSGTSASLAITGLQAEDEADYYCQSYDNSLSGSVVFGGGTKLTVL | – | – | – | Kd [1]: 0.36 nM; Neut IC50 (ug/ml) subtype B [2]: 0.17 µg/mL; Neut IC50 (ug/ml) subtype A [3]: 0.1 µg/mL |
